# Reference: patent publication US20210371526A1
# Biological target: CD19 on tumor cells (Raji, Raji-Luc, NALM6, Reh) (human) (UniProt P15391)
# Assay: cell-based or functional assay
# Sequence of CD19 on tumor cells (Raji, Raji-Luc, NALM6, Reh) (human) (P15391 20-556): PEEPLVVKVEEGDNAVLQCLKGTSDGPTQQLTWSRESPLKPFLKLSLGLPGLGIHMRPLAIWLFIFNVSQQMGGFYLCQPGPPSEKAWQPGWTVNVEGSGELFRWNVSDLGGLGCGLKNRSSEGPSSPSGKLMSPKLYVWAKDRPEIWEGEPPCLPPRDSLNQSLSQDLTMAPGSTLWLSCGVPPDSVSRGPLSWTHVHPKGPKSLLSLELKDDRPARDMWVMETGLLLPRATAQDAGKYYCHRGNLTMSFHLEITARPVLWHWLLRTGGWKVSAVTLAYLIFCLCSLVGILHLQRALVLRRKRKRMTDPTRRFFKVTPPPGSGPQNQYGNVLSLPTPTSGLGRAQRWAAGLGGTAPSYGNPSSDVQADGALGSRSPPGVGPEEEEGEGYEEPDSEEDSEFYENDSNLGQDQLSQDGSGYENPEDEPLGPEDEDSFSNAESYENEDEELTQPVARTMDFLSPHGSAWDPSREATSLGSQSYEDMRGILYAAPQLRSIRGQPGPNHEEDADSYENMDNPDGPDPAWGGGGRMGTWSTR
substance,measurement,value
Blincyto (bispecific antibody),EC50 of CIK-mediated killing of NALM6 cells,0.0773 nM
same,EC50 of CIK-mediated killing of Raji-LUC cells,0.000595 nM
same,"EC50 of CIK-mediated killing of Raji-LUC cells, second row",0.00565 nM
same,EC50 of CIK-mediated killing of Reh cells,0.0119 nM
same,EC50 of PBMC-mediated killing of Raji-LUC cells,0.00545 nM
same,"EC50 of PBMC-mediated killing of Raji-LUC cells, second row",0.0212 nM
same,"EC50 of PBMC-mediated killing of Raji-LUC cells, third row",0.0226 nM
same,EC50 of activation of Jurkat T cells with NFAT RE reporter in the presence of Raji target cells,2.71 nM
